{"source": "the RNAGym collection of RNA variant scans (doi:10.1073/pnas.2313332121)", "parents": {"B1": {"name": "TPR t1 (parent)", "chain": "GACCAAUCUGCCCUCAGAGCUCGAGAACAUCUUCGGAUGCAGAGGAGGCAGGCUUCGGUGGCGCGAUAGCGCCAACGUCCUCAACCUCCAAUGCAUCCCACCACAUGAUGAUGCCUGAAGAGCCUUGGUUUUUUG"}}}
{"variants_of": "B1", "assay": "polymerase ribozyme fitness, log enrichment relative to wild type (log ratio); higher = more active; in vitro selection for triplet polymerase activity", "in_short": "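Fitness measures genotype enrichment against wild-type enrichment on a logarithmic scale, with inverse-variance-weighted averaging of replicates. The logarithm is base 2, and genotypes were kept only with ≥10 input reads and ≥1 read per output in Illumina sequencing. The sequenced libraries came from one triplicate in vitro selection round, including frozen incubation at −7 °C, of PCR-built, transcribed mutant libraries of each subunit of a heterodimeric triplet polymerase ribozyme.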"}
{"variant": "GACCAUUCUGCCCUCAGAGCUCGAGAACAUCUUCGGAUGCAGAGGAGGCAGUCUUCGGUGGCGCGAUAGCGCCAACGUCCUCAACCUCCAAUGCAUCCCACCACAUGAUGAUGCCUGAAGAGCCUUGGUUUUUUG", "polymerase ribozyme fitness (log ratio)": -1.52}
{"variant": "GACCAAUCUGCCCUCAGAGCUCGAGAGCAUCUUCGGAUGCAGAGGAGGCAGGCUUCGGUGGCGCGAUAGUGCCAACGUCCUCAACCUCCAAUGCAUCCCACCACAUGAUGAUGCCUGAAGAGCCUUGGUUAUUUG", "polymerase ribozyme fitness (log ratio)": -3.2}
{"variant": "GACCUAUCUGCCCUCAGAGCUCGAGAACAUCUUCGGAUGCAGAGGAGGCAGGCUUCGGUGGCGCGAUAGCGCCAACGUCCUCAACCUCCAAUGCAUCCCACCACAUGAUUAUGCCUGAAGAGCCUUGGUAUUUUG", "polymerase ribozyme fitness (log ratio)": -2.41}
{"variant": "GACCAAUCUGCCCUCAGAGCUCGAGAACAUCUUCGUAUGCAUAGGAGGCAGGCUUCGGUGGCGCGAUAGCGCCAACGUCCUCAACCUCCAAUGCAUCCAACCACAUGAUGAUGACUGAAGAGCCUUGGUUUUUUG", "polymerase ribozyme fitness (log ratio)": -7.29}
{"variant": "GACCAAUCUGCCCUUAGUGCUCGAGAACAUCUUCGGAUGCAGAUGAGGCAGGCUUCGGUGGCGCGAUAUCGCCAACGUCCUCAACCUCCAAUGCAUCCCACCACAUGAUGAUGCCUGAAGAGCCUUGGUUUUUUG", "polymerase ribozyme fitness (log ratio)": -5.2}
{"variant": "GACCAAUCUGCCCUGAGAGCUCGAGAACAUCUUCGGAUGCAGAGGAGGCAGGCUUCGGUGGCGCGAUAGCGCCAACGGCCUCAACCUCCAAUGCAUCCCACCACAUGAUGAUGCUUGAAGAGCCUAGGUUUUUUG", "polymerase ribozyme fitness (log ratio)": -2.34}
{"variant": "GACCAAUCUGCCCUCAGACCUCGAGAACAUCUUCGGAUGCACAGGAGGCAGGCUUCGGUGGCGCGAUAGCGCCAACGUCCUCAACCUCCAAUGCAUCCCACCACAUGAUUAUACCUGAAGAGCCUUGGUUUUUUG", "polymerase ribozyme fitness (log ratio)": -5.33}
{"variant": "GACCAAUCUGCCCUCAGAGCUCGAGAACAUCUUCCGAUGCAGAGGAGGCAGGCUUCGGUGGCGCGAUAGCGCCAACGUCCUCAACCUCCAAUGCAUCCCACCACAUGAUGAUGCUUGUAGAGCCUUGGUUUUUUG", "polymerase ribozyme fitness (log ratio)": -7.09}
{"variant": "GACCAAUCUGCCCUCAGAGCUCGAGAACAUCUUCGGAUGCAGAGGAUGCAGGCUUCGGUGGCGCGAUAGCGCCAACGUCCUCAACCUCCAAAGCAUCCCACCACAUGAUGAUGCCUGAAGAGCCUUGGUUUUUUG", "polymerase ribozyme fitness (log ratio)": -5.48}
{"variant": "GACCAAUCUGCCCUCAGCGCUCGAGAACAUCUUCGGAUGCAGAGGAGGCAGGCUUCGGUGGCGCGAUAGCGCCAACGUCCUCAACCUCCAAUGCAUCCCACCACAUGAUGAUGCCUGAAGAGCCUUGGUUAUUUG", "polymerase ribozyme fitness (log ratio)": -2.1}
{"variant": "GACCAAUCUGCCUUCAGAGCUCGAGAACAUCUUCGGAUGCAGGGGAGGCAGGCUUCGGUAGCGCGAUAGCGCCAACGUCCUCAACCUCCAAGGCAUCCCACCACAUGAUGAUGCCCGAAGAGCCUUGGUUUUUUG", "polymerase ribozyme fitness (log ratio)": -3.1}
{"variant": "GACCAAUCUGCCCUCAGAGCUCGAGAACAUCUUCGGAUGCAGAGGAGGCAGGCUUCGGUGGCGCGAUAGCGCCAACGUGCUCAACCUCCAAUGCAUCCCACCACAUGAAGAUGCCUGAAGAGCCUUGGUUUUUUG", "polymerase ribozyme fitness (log ratio)": -7.49}
{"variant": "GACCAAUCUGCCCUCAGAGCUCGAGAACAUCUUCGGAUGCAGAGGAGGCAGGCUUCGGUGGCGCGAUAGCGCCAACGUGCUCAACCUCCAAUGCAUCCCACCACAUGGUGAUGCCUGAAGAGCCUUGGUUUUUUG", "polymerase ribozyme fitness (log ratio)": -3.63}
{"variant": "GACCAAUCUGCCCUCAGAGCUCGAGAACAUCUUCGGAUGCAGAGGAGGCAGGCUUCGGUGGCGCGAUAGCGCCAACGUCCUCAACCUCCAAUUCAUCCCACCACAUGGUGAUGCCUGAAUAGCCUUGGUUUUUUG", "polymerase ribozyme fitness (log ratio)": -3.31}
{"variant": "GACCAAUCUGCCCUCAGAGCUCGGGAACAUCUUCGGAUGCAGAGGAGGCAGGCUUCGUUGGCGCGAUAGCGCCAACGUCCUCAACCUCCAAUGCAUCCCACCACAUGAUGAUGCCUGAAGAGCCUUGGUUUUUUG", "polymerase ribozyme fitness (log ratio)": -1.2}
{"variant": "GACCAAUCUGCCCUCAGAGCUCGAGUACAUCUUCGGAUGAAGAGGAGGCAGGCUUCGGUCGCGCGAUAGCGCCAACGUCCUCAACCUCCAAUGCAUCCCACCACAUGAUGAUGCCUGAAGAGCCUUGGUUUUUUG", "polymerase ribozyme fitness (log ratio)": -6.14}
{"variant": "GACCAAUCUGCCCUCAGAGCUCGAGAACAUCUUCGGAUGCAGAUGAGGCAGGCUUCGGUGGCGCGAUAGCGCCAACGUCCUCAACCUCCAUUGCAUCCCACCACAUGAUGAUGCCUGAAGAGCCUUGGUUUUUUG", "polymerase ribozyme fitness (log ratio)": -2.13}
{"variant": "GACCAAUCUGCUCUUAGAGCUCGAGAACAUCUUCGGAUGCAGAGGAGGCAGGCUUCGGUGGCGCGAUAGCGCCAACGUCCUCAACCUCCGAUGCAUCCCCCCACAUGAUGAUGCCUGAAGAGCCUUGGUUUUUUG", "polymerase ribozyme fitness (log ratio)": -1.2}
{"variant": "GACCAAUCUGCCCUCAGAGCUCGAGAACAUCUUCGGAUGCAGAGGAGGCAGGCUUCGGUGGCGCGAUAGCGCCAACGUCCUCAACCUCCAAUGCAUCCCACCACAUGAUGAUGCCUGAAAAACCUUGCUUUUUUG", "polymerase ribozyme fitness (log ratio)": -2.03}
{"variant": "GACCAAUCUGCCCUCAGAGCUCGAGAACAUCUUCGGAUGCAGAGGAGGCAGGCUUCGGUGGCGCGAUAGCGCCAACGUCCUCAACCUCCAAUGCAUCGCACCACAUGAUGAUGCAUGAAGAGCCUUGGUUUUUUG", "polymerase ribozyme fitness (log ratio)": -5.15}
{"variant": "GACCAAUCUGCCCUGAGAGCUCGAGAACAUCUUCGGAUGCAGAGGAGGCAGGCUUCGGUGGCGCGAUAGCGCCAACGUCCUCAACCUCCAAUGCAUCCCACCACAUGAUGAUGCCUAAAGAGCCUUGGUUUUUUG", "polymerase ribozyme fitness (log ratio)": -1.61}
